{"source": "patent US20260027179A1", "about": "“ANTI-SYNUCLEINOPATHY PEPTIDE AND METHODS TO TREAT NEURODEGENERATIVE DISEASES” (University of British Columbia, priority 2021, published 2026)", "key": {"human A53T α-synuclein": {"biological_target": "T1, human A53T α-synuclein (Homo sapiens, UniProt P37840, A53T)", "T1 construct": "tissue The Jackson Laboratory 004479; host or cells: brain of M83 hemizygous transgenic mice", "test": "Brain α-synuclein ELISA in M83 transgenic mice after i.p. injection", "format": "in vivo, mouse", "details": "40 mg/kg i.p.", "experimental": "Tat-βsyn-degron peptide was also shown to decrease α-synuclein levels in vivo, using M83 transgenic mice that overexpress mutant human A53T α-synuclein. M83 mice, injected intra-peritoneally (i.p.) with 40 mg/kg Tat-βsyn-degron peptide, were sacrificed at time points of 6, 12, 24, and 48 hrs and α-synuclein levels in the brain were measured by ELISA.\nMale M83 hemizygous mice overexpressing the human A53T α-synuclein mutant (12 weeks old, 25-30 g, 004479, The Jackson Laboratory) were housed individually and maintained on a 12/12 hrs light/dark cycle at 22° C. ambient temperature and with unlimited access to food and water. Housing, breeding, and procedures were performed according to the Canadian Council on Animal Care and were approved by the McGill University Animal Care Committee.\nBrains were lysed (1 g tissue per 3 mL solution) in a buffer solution (50 mM Tris pH 8, 150 mM NaCl, 5 mM EDTA, 1% NP-40, 0.5% sodium deoxycholate, 0.1% SDS, protease and inhibitor cocktail [aprotinin, leupeptin and benzamidine], and phosphatase inhibitor cocktail) on ice. Lysates were homogenized at 1,600 g several times, sonicated and finally centrifuged at 100,000 g for 30 min. The supernatant was collected and processed with the Human α-synuclein ELISA kit (KHB0061, ThermoFisher Scientific) and analyzed with a Tecan microplate reader (Tecan Infinite M200 Pro, life science). The level of α-synuclein was expressed as ng/ml total sample."}, "[1]": {"biological_target": "T2, phosphorylated (pS129) α-synuclein (Homo sapiens, UniProt P37840, A53T)", "T2 construct": "tissue The Jackson Laboratory 004479; host or cells: coronal brain sections (substantia nigra, pons) of M83 mice injected with human α-synuclein PFFs", "test": "PFF mouse model of spreading synucleinopathy, pS129 α-synuclein immunostaining", "format": "in vivo", "details": "PFF-injected M83 mice, 40 mg/kg i.p. over 20 days, at three months, vs Tat-βsyn group", "experimental": "M83 mice were injected intracerebrally (i.e.) into the right dorsal striatum with either 12.5 μg of α-synuclein pre-formed fibrils (PFFs) or PBS. Starting at 3 days prior to the PFF injection, mice were treated daily for 12 days with either Tat-βsyn or Tat-βsyn-degron peptide (40 mg/kg; i.p.) and once every other day for the subsequent 8 days (20 days in total, FIG. 5a). At the end of three months, coronal brain sections of the M83 mice were prepared and stained with antibodies against serine 129-phosphorylated α-synuclein (pS129syn), a marker of pathogenic synuclein aggregates, and Iba-1, a calcium-binding protein specifically expressed in macrophage and microglia as a marker of neuroinflammation.\nPFFs were generated in-house based on the Volpicelli-Daley et al protocol. […] PFFs were characterized using a negative staining protocol and analyzed using an electron microscope. […] PFFs were visualized using a transmission electron microscope (FEI Tecnai 12 Bio Twin 120 kV TEM) coupled to a AMT XR80C CCD camera, and analyzed with ImageJ 1.5 and Matlab 2017b software. […]\nBrains from M83 mice that received i.e. and i.p. injections were processed for immunohistochemistry. […] Coronal sections were analyzed using Fiji-ImageJ 1.5 software to detect the total area labeled with the peroxidase immunoreaction product. The results were analyzed using GraphPad Prism software."}}, "data": [{"sequence": "YGRKKRRQRRRRTKSGVYLVGRRRG (The sequence is synthesized (YGRKKRRQRRRRTKSGVYLVGRRRG)) [Tat-βsyn-degron]", "values": [{"measurement": "time of peak effect on brain α-synuclein", "setting": "human A53T α-synuclein", "value": "around 24 hrs"}, {"measurement": "α-synuclein levels in the brain (ELISA)", "setting": "human A53T α-synuclein; 12 hrs", "value": "reduction of α-synuclein levels"}, {"measurement": "α-synuclein levels in the brain (ELISA)", "setting": "human A53T α-synuclein; 24 hrs", "value": "reduction of α-synuclein levels"}, {"measurement": "pS129syn staining in pons", "setting": "[1]", "value": "significantly reduced"}, {"measurement": "pS129syn staining in substantia nigra pars compacta", "setting": "[1]", "value": "significantly reduced"}]}]}
